Measurements taken from the supplement of paper PMC9732359.
± gives the uncertainty stated by the source.

Test: protein stability index of a GFP-peptide fusion (yeast GPS) (PSI 1-4); higher = more stable; sorted into four equal gates, so the index is relative within each strain
How it was run: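 Plasmids in a pooled yeast library fused tiled 17-residue yeast protein peptides downstream of GFP and also expressed Cherry. Mid-log cultures grown without leucine were sorted into four equal gates by GFP/Cherry fluorescence ratio. Each gate's plasmids were PCR-amplified and Illumina-sequenced, and reads were matched to strains by barcodes. The protein stability index is derived by multiplying each gate's read frequency by its gate number and summing the results.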

Row | Sequence | protein stability index (doa10∆) | protein stability index (pdr5∆) | protein stability index (san1∆) | protein stability index (ubr1∆)
1 | VEENRVRYTTSVMPPNE [DLS1] | 2.62 ± 0.055 | 2.79 ± 0.051 | 2.85 ± 0.048 | 2.86 ± 0.055
2 | LAREVPQQSGKKLLINK [DPB4] | 1.43 ± 0.092 | 2.06 ± 0.063 | 1.86 ± 0.1 | 1.58 ± 0.067
3 | TRDEKDPKRLFEGNALI [RPS9A] | 3.55 ± 0.2 | 3.6 ± 0.12 | 2.97 ± 0.18 | 3.71 ± 0.15
4 | AMNDACYEKVLESINEG [BRR2] | 3.15 ± 0.12 | 2.82 ± 0.17 | 2.91 ± 0.095 | 3.37 ± 0.2
5 | FTFGQSTSENKISEGSA [YOR098C/NUP1] | 3.71 ± 0.16 | 3.35 ± 0.084 | 2.86 ± 0.12 | 3.37 ± 0.11
6 | KGTGEESNDRINKIVEI [YGR119C/NUP57] | 3.66 ± 0.18 | 3.18 ± 0.16 | 2.93 ± 0.17 | 2.89 ± 0.15
7 | VLRLNAIPLLKVLRKFR [NUT1] | 1.98 ± 0.052 | 2.21 ± 0.054 | 2.06 ± 0.084 | 2.3 ± 0.038
8 | NAQLSCITKQDGFKIYD [PUP2] | 3.04 ± 0.16 | 3.17 ± 0.12 | 3.12 ± 0.098 | 3.07 ± 0.1
9 | KRNKLLTIFDSVDESAR [YJL039C/NUP192] | 2.26 ± 0.07 | 2.37 ± 0.072 | 2.32 ± 0.061 | 2.36 ± 0.066
10 | SATLPNYEDVGRFLRVP [BRR2] | 2.8 ± 0.087 | 3.1 ± 0.062 | 3.04 ± 0.048 | 3.01 ± 0.075
11 | QSRRYNLRRHSDIVLDK [SIN4] | 3.07 ± 0.05 | 3.21 ± 0.034 | 3.131 ± 0.028 | 3.14 ± 0.035
12 | WRAHDSSIVAIDWASPE [YGL100W/SEH1] | 2.55 ± 0.092 | 2.8 ± 0.1 | 2.83 ± 0.078 | 2.79 ± 0.068
13 | SCQGNVIYRNSLYKVSF [YMR129W/POM152] | 2.54 ± 0.064 | 2.76 ± 0.068 | 2.56 ± 0.064 | 2.71 ± 0.094
14 | LKQPPFQITLSSDDLQN [SSN8] | 2.23 ± 0.059 | 2.31 ± 0.077 | 2.34 ± 0.064 | 2.35 ± 0.085
15 | ESDYEPNNETSVLSSKP [SIR3] | 2.99 ± 0.089 | 3.08 ± 0.11 | 3.02 ± 0.11 | 3.01 ± 0.07
16 | PKATSSAGAVFKSSVEM [YOR098C/NUP1] | 2.89 ± 0.12 | 1.86 ± 0.11 | 2.69 ± 0.1 | 2.45 ± 0.047
17 | AELEELEEFEFKHGPMS [SMD2] | 3.42 ± 0.078 | 3.41 ± 0.063 | 3.15 ± 0.058 | 3.34 ± 0.071
18 | EILTSVDVLGTHSQTGT [SIR4] | 2.93 ± 0.069 | 2.76 ± 0.063 | 2.87 ± 0.067 | 3.07 ± 0.037
19 | FNKTTNIDINNEDENIQ [YJL041W/NSP1] | 3.19 ± 0.074 | 3.31 ± 0.082 | 3.09 ± 0.056 | 3.2 ± 0.059
20 | VSKPAFSFGAKANEKKE [YJL041W/NSP1] | 3.07 ± 0.15 | 2.78 ± 0.24 | 2.95 ± 0.11 | 2.94 ± 0.16
21 | PCNNRGKHSIGLIWYLL [RPS0A] | 2.56 ± 0.058 | 2.37 ± 0.054 | 2.49 ± 0.058 | 2.37 ± 0.044
22 | RNPARLMETLRTLRRKG [RPB2] | 2.28 ± 0.077 | 3.06 ± 0.086 | 2.47 ± 0.089 | 2.87 ± 0.13
23 | EVFSVLGIEAARYSIIR [RPO31] | 1.72 ± 0.13 | 1.63 ± 0.11 | 1.43 ± 0.25 | 1.59 ± 0.14
24 | NEVSLAIKKSSMKMELL [SMC2] | 2.69 ± 0.071 | 2.49 ± 0.082 | 3.34 ± 0.12 | 2.21 ± 0.075
25 | TPLFHALAEGHGDAAVL [NAS6] | – | 3.1 ± 0.1 | 3.07 ± 0.091 | 2.61 ± 0.12

Row | Sequence | protein stability index (doa10∆) | protein stability index (pdr5∆) | protein stability index (san1∆) | protein stability index (ubr1∆)
26 | LYFPDDYPFTQLGYIEN [POP1] | 2.71 ± 0.12 | 3.18 ± 0.074 | 3.1 ± 0.071 | 3.16 ± 0.068
27 | ILPDSLNLDSLLVDQKQ [SMD1] | 3.29 ± 0.098 | 3.01 ± 0.085 | 3.21 ± 0.074 | 3.09 ± 0.06
28 | KIPSASIWGNGYSGYGN [SNF5] | 3.25 ± 0.1 | 3.27 ± 0.11 | 3.42 ± 0.095 | 3.3 ± 0.05
29 | MVNVPKTRKTYCKGKTC [RPL42A] | 1.42 ± 0.15 | 1.41 ± 0.1 | 1.99 ± 0.25 | 1.35 ± 0.075
30 | VFDLCWNSLMYALQSVK [RRP43] | 2 ± 0.062 | 2.02 ± 0.067 | 2.04 ± 0.074 | 1.99 ± 0.051
31 | TSTNPNGLGTSHINTNV [ARP7] | 3.14 ± 0.068 | 3.28 ± 0.061 | 2.96 ± 0.061 | 3.33 ± 0.057
32 | DSLNEWIKFDQELYNEL [RPN7] | 3.18 ± 0.11 | 3.17 ± 0.19 | 3.17 ± 0.074 | 3.19 ± 0.073
33 | MNIPQRQFSNEEVNRCY [SNF2] | 2.44 ± 0.1 | 3 ± 0.14 | 2.96 ± 0.26 | 3 ± 0.065
34 | LSKEVPFSYLIDETMMD [SRB5] | 2.03 ± 0.12 | 2.36 ± 0.066 | 2.22 ± 0.13 | 2.55 ± 0.048
35 | DNNNTTNNDSNNKNNSI [MED2] | 2.83 ± 0.049 | 2.86 ± 0.045 | 2.96 ± 0.038 | 2.45 ± 0.034
36 | KNHFRKHWQERVKVHFD [RPL13A] | 1.3 ± 0.037 | 1.71 ± 0.05 | 1.47 ± 0.083 | 1.54 ± 0.038
37 | DTLKENATEVQKESDAK [ITC1] | 2.87 ± 0.11 | 2.94 ± 0.12 | 2.85 ± 0.086 | 3.16 ± 0.26
38 | YNYCVNKSRSSGHFSTD [CDC53] | 2.8 ± 0.056 | 2.54 ± 0.046 | 2.23 ± 0.049 | 2.54 ± 0.036
39 | GLQDEIMKIGGIKLQMQ [SMC4] | 2.8 ± 0.071 | 3.13 ± 0.053 | 3.02 ± 0.058 | 3.17 ± 0.089
40 | VLQKVIEWAEHHRDSNF [SKP1] | 3.08 ± 0.078 | 3.14 ± 0.063 | 3.04 ± 0.049 | 3.25 ± 0.062
41 | FNYSGKDMLYSGITGEC [RET1] | 2.48 ± 0.075 | 2.46 ± 0.075 | 2.19 ± 0.12 | 2.61 ± 0.06
42 | EVTKLLKNEGIDLDHKR [SMC4] | 3.08 ± 0.12 | 3.2 ± 0.17 | – | 3.55 ± 0.1
43 | NPIDIKRRFGELMDRTG [RPP1] | 3.08 ± 0.12 | 3.19 ± 0.18 | 2.26 ± 0.26 | 2.9 ± 0.059
44 | YHNLTTHNSYEKACQVL [RPN6] | 3.33 ± 0.071 | 3.11 ± 0.058 | 3.1 ± 0.063 | 2.99 ± 0.037
45 | GAEVDEARINELLSSLE [RPP2B] | 3.16 ± 0.11 | 3.5 ± 0.11 | 3.22 ± 0.077 | 3.21 ± 0.1
46 | DLTNNPQDDDSQSKMMS [MTR3] | 3.17 ± 0.084 | 3.39 ± 0.073 | 3.09 ± 0.074 | 3.31 ± 0.055
47 | SAILLSETDKRQFLHEL [RPO31] | 2.6 ± 0.069 | 2.49 ± 0.051 | 2.88 ± 0.087 | 2.63 ± 0.052
48 | NYGEKEERKRWAMQGIS [PCI8] | 2.92 ± 0.14 | 2.52 ± 0.24 | – | –
49 | TYEIICDQTKSVPLMIN [RRP43] | 1.66 ± 0.073 | 2.3 ± 0.11 | 1.49 ± 0.11 | 1.55 ± 0.069
